From article PMC13270198
Values joined by “and” are separate entries in the source; they are usually repeats but may differ in a detail not shown here. Equal entries are not always repeated.

Columns and labels:
[1] = test system: Cas12a2 (SuCas12a2) (Sulfuricurvum sp. PC08-66); assay: fluorescence anisotropy; conditions: phosphorothioate (non-hydrolyzable); Fluorescence anisotropy: 25 mM HEPES pH 7.2, 150 mM KCl, 2 mM MgCl2, 5 ug/ml BSA, 10 nM probe, read at 30 min; temperature not stated
[2] = test system: Cas12a2 (SuCas12a2) (Sulfuricurvum sp. PC08-66); assay: competition (cleavage inhibition); conditions: phosphorothioate (non-cleavable); Fluorescence anisotropy: 25 mM HEPES pH 7.2, 150 mM KCl, 2 mM MgCl2, 5 ug/ml BSA, 10 nM probe, read at 30 min; temperature not stated

Substance: PT collateral ssRNA
- Kd [1]: 6.7 nM and 37 nM and 19 nM

Substance: PT-ssRNA inhibitor
- Ki [2]: 610 nM and 110 nM

Substance: PT-ssDNA inhibitor
- Ki [2]: 120 nM and 90 nM and 50 nM
